Data published in the nanobody polyreactivity screen of Harvey et al. (2022).

Test: yeast display, Sf9 membrane polyspecificity reagent, FACS + sequencing; frameworks hold sequencing errors
Outline: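 In a synthetic yeast display library (Saccharomyces cerevisiae BJ5465), nanobody expression was induced with galactose for 36–48 hours. FACS gates were set low and high (top ~1%) using anti-HA fluorescence for expression and streptavidin fluorescence for binding of the Sf9 membrane reagent. Each polyreactivity label is drawn from the gate of origin.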

Sequence | polyreactivity (PSR sort gate)
QDQLEESGGGLVQEGGSLRLSCAASGFIFPRYAMGWYRQAPGKERELVAAISRSGGITRYADSVKGRFSISRDNAKNTVYLQMISLKPEDTAVYYCAAARSYWAKYYYWGQGTQVTVSS | high polyreactivity
QDQLGDSGGGLVQAGGSLRLSCAASGLTFYRYAMGWYRQAPGKERELVAAIRWNSGSTYYADSVKGRFTISRVNAKNTVYLQMNSLKPEDTAVYYCAATAIYPSAWRMAYWGQGTQVTVSS | high polyreactivity
QDQLGESGGGLVQAGGSLRLICAASGRIFVSNTMGCYRQAPGKERELVATISRRGGITYYADSVKGRFTISRDNAKNTVYLQMNSLKPEDTAVYYCAAESYSFWLYDYCGQGTQVTVSS | high polyreactivity
QDQLGESGGGLVQAGGSLRLSCAASGSIFETYVMGWYRQAPGKERELVAAINSGGSTNYADSVKGRFTISRDNAKNTVYLQMNSLKAEDTAVYYCNADWFTPAQPWYRYFIRYDYWGQGTQVTVSS | low polyreactivity
QDQLLESGAGLVQAGGSLRLSCAASGRIFDYNVMGWYRQAPGKERELVADITSSGGSTYYADSVKGRFTISRDNAKNTVYLQMNSLKPEDTAVYYCYISYFTIYDDFYYWGQGTQVTVSS | low polyreactivity
QDQLLESGGGLVQAGGSLRLSCAASGSILQDYAMGWYRQAPGKERELVAAISNSGDSTYYADSLKGRFTISRENAKTTVYLQLNSLKPEDTAVYYCNAAVYPYAMYSGGLDYDYWGHGTQVTVSS | low polyreactivity
QDQLVDSCGGLVQARGSLRLSCAASGSIFGDYAMGWYRQAPGKEWELVAAISDTDSTNDADSVKGRFTISRDNAKNTVYLQMNSLKREDTAVYSCNGDTWGYLLGYYYYKFAYCGQGTQVTVSS | low polyreactivity
QDQLVDSGGGLLQAGGSLRLSCAASGRIFVWNTMGWYRQAPGKERELVAAITSGGSTTFADSVKGRFTISRDNAKYTVYLQMNSLKPEDTAVYYCNTELDLYHPGDDYWGQGTQVTVSS | high polyreactivity
QDQLVDSGGGLVQAGGSLRLSCAASASTFDPNLMPSYRQAPGKEREVVAAISSRSGSTSYADSVKGRFTISRDNAKNTDYLQMNSLKPEDTAVYYCAARVYGLPLRMYSWGQGTQVTGSS | high polyreactivity
QDQLVDSGGGLVQAGGSLRLSCAASGNIFTFNAMGWYRQAPGKERELVAAISRGGRTNYADSVKGRFTISRDNAKNTVYLQMNSLKPEDTAVYYCAAEFPQRASGGRYKTEYDYWRQGTQVTVSS | low polyreactivity
QDQLVDSGGGLVQAGGSLRLSCAASGYTFWDYAMGWYRQAPGKEREFVAGISFSDGGTYYADSVKGRFTISRDNAKNTVYLQMNSLKPEDTAVYYCAATYPYSWVYSGYYYWGQGTQVTVSS | low polyreactivity
QDQLVDSGGGLVQAGGSLRLSCAPSGSTIYPNAKGWTRQAPGKERELVAGISSGGGTYYADSVKGRFTISRDNAKNTVYLQMNSLKPEDTAVYYCNAYFLSSCLDYLGQGTQVTVSS | low polyreactivity
QDQLVEAGGGVVQAGGSLRLSCAASVIIIDYYAMAWYRQAPAKERELDAAITSGGSTSYADSVKGRFTISRDNAKNTVYLQMNSLKPEDTAVYYCNNEPSGYQSAYWGQGTQVTVSS | low polyreactivity
QDQLVESAGGLVQAGGSLRLICAATGSNFNRYAMGWYRQAAGKEREFVAAITRRGGNTYYADSVKGRFTISRDHPKNTVYLQMNSLKPVDTAVYYCAAPFYFPAGLLYYENNYWGHGTQVTVSS | high polyreactivity
QDQLVESAGGLVQAGGSLRLSCAASGNTFSTNPLGSYRQAAGKERELVATISRNGGSTSYAVSVKGRFTISRDNAKNSDYLKMYSLKAEDTAVYYCAARSVRPGPFSDDYWGQGTQVTVSS | low polyreactivity
QDQLVESAGGLVQAGGSLRLSCAASGSNFYHYAMGWYRQAHGKERELVAAISQSGGGTYYADSVKGRFTISRDNAKNTVYLQMNSLKPEDTAVYYFAAKGRHNYYYWGQGTLVTVSS | high polyreactivity
